Consider 20 molecules from patent US20130158238A1 (THERACLONE SCIENCES, published 2013).

By Kd is commonly meant the concentration at which binding is half-saturated. As usually defined, the koff is a measure of how fast the partners let go of each other. A high value points to fast dissociation. As a reminder, the kon is the second-order rate constant of association. Broadly, the EC50 (read off the curve) is the concentration that produces a half-maximal response.

B1: TCN-032 Fab fragment (Fab, V domains shown)
VH: QVQLQESGPGLVKPSETLSLTCTVSGSSISNYYWSWIRQSPGKGLEWIGFIYYGGNTKYNPSLKSRVTISQDTSKSQVSLTMSSVTAAESAVYFCARASCSGGYCILDYWGQGTLVTVSS
VL: DIQMTQSPSSLSASVGDRVTITCRASQNIYKYLNWYQQRPGKAPKGLISAASGLQSGVPSRFSGSGSGTDFTLTITSLQPEDFATYYCQQSYSPPLTFGGGTRVEIK
B2: TCN-031 Fab fragment (Fab, V domains shown)
VH: EVQLVESGGGLVQPGGSLRISCAASGFTVSSNYMSWVRQAPGKGLEWVSVIYSGGSTYYADSVKGRFSFSRDNSKNTVFLQMNSLRAEDTAVYYCARCLSRMRGYGLDVWGQGTTVTVSS
VL: DIQMTQSPSSLSASVGDRVTITCRTSQSISSYLNWYQQKPGKAPKLLIYAASSLQSGVPSRFSGSGSGTDFTLTISGLQPEDFATYYCQQSYSMPAFGQGTKLEIK
B3: 3245_O19 (antibody, V domains shown)
VH: EVQLVESGGGLVQPGGSLRLSCTASGLSVSSTYMNWVRQAPGKGLEWVSVFYSETRTYYADSVKGRFTVSRHNSNNTLYLQMNSLRVEDTAVYYCARVQRLSYGMDVWGQGTTVTVSS
VL: DIQMTQSPSSLSASVGDRVTITCRASQSISTYLNWYQKRPGKAPKLLVYGASTLQSGVPSRFSGSGSGTDFTLTIASLQPEDSATYYCQQTYSIPLFGQGTRLEIK
B4: 3244_H04 (antibody, V domains shown)
VH: EVQLVESGGGLVQPGGSLRLSCTASGLSVSSTYMNWVRQAPGKGLEWVSVFYSETRTYYADSVKGRFTVSRHNSNNTLYLQMNSLRAEDTAVYYCARVQRLSYGMDVWGQGTTVTVSS
VL: DIQMTQSPSSLSASVGDRVTITCRASQSISTYLNWYQKRPGKAPKLLVYGASSLQSGVPSRFSGSGSGTDFTLTIASLQPEDSAVYYCQQTYSIPLFGQGTRLEIK
B5: 3252_C13 (antibody, V domains shown)
VH: QVQLQESGPGLVKPSETLSLTCTVSGASISSDYWSWIRLPPGKGLEWIGYIYNRGSTKYTPSLKSRVTISLDTAENQFSLRLRSVTAADTAIYYCARHVGGHTYGIDYWGQGTLVTVSS
VL: DIQMTQSPSSLSASVGDRVTITCRASQSISNYLNWYQHKPGEAPKLLNYAASSLQSGVPSRFSASGSGTDFTLTISSLQPEDFATYYCQQSYNTPITFGQGTRLEIK
B6: 3420_I23 (antibody, V domains shown)
VH: QVQLQESGPGLVKPSETLSVTCKVSGDSISSYSWSWIRQPPGKGLEWVGYLYYSGSTKYNPSLKSRTTISVDTSTNQLSLKLSFVTAADTAVYFCARTGSESTTGYGMDVWGQGTTVTVSS
VL: DIQMTQSPSSLSASVGDRVTITCRASQSISTYLNWYQQKPGKAPKLLIYAASSLHSGVPSRFSGSGSGTDFALTISSLQPEDFATYYCQQSYSPPITFGQGTRLEIK
B7: 3255_J06 (antibody, V domains shown)
VH: QVQLQESGPGLVKPSETLSLTCTVSGASISSDYWSWIRLPPGKGLEWIGYIYNRGSTKYTPSLKSRVTISLDTAENQFSLRLRSVTAADTAVYYCARHVGGHTYGIDYWGQGTLVTVSS
VL: DIQMTQSPSSLSASVGDRVTITCRASQSISNYLNWYQHKPGEAPKLLNYAASSLQSGVPSRFSASGSGTDFTLSISGLQPEDFATYYCQQSYNTPITFGPGTRLEIK
B8: 3362_B11 (antibody, V domains shown)
VH: QVQLQASGPGLVKPSETLSLTCTVSGDSITSGAYYWTWIRQHPGKGLEWIGYIYYSGNTYYNPSLKSRVTISLDTSKNQFSLKVNSVTAADTAVYYCARAASTSVLGYGMDVWGQGTTVTVSS
VL: DIQMTQSPSSLSASVGDRVTITCRASQSISRYLNWYQQEPGKAPKLLVYAASSLQSGVPSRFSGSGSGTDFTLTISSLQPEDFATYYCQQSYSTPLTFGQGTRLEIK
B9: 3136_G05 (antibody, V domains shown)
VH: QVQLQESGPGLVKPSETLSLTCSVSGGSISSDFWSWIRQPPGKGLEWIGYVYNRGSTKYSPSLKSRVTISADMSKNQFSLNMSSVTAADTAVYYCAKNGRSSTSWGIDVWGKGTTVTVSS
VL: DIQMTQSPSSLSASVGDRLTITCRASQSISTYLHWYQQKPGKAPKLLIYAASSLQSGVPSRFSGSRSGTDFTLTISSLQPDDFATYYCQQSYSPPLTFGPGTKVDMK
B10: 3260_D19 (antibody, V domains shown)
VH: DMQLVESGGGLVPPGGSLRLSCAASGFSVSDNYINWVRQAPGKGLDWVSVFYSADRTSYADSVKGRFTVSSHDSKNTVYLQMNSLRAEDTAVYYCARVQKSYYGMDVWGQGTTVTVSS
VL: GIQMTQSPSSLSASVGDRVTITCRASQSISRYLNWYLQKPGKAPKLLISGASSLQSGVPSRFSGTGSGTEFTLTISSLQPEDFATYYCQQTFSIPLFGQGTKVEIK
B11: 3242_P05 (antibody, V domains shown)
VH: DMQLVESGGGLVPPGGSLRLSCAASGFSVSDNYINWVRQAPGKGLDWVSVFYSADRTSYADSVKGRFTVSSHDSKNTVYLQMNSLRAEDTAVYYCARVQKSYYGMDVWGQGTTVTVSS
VL: GIQMTQSPSSLSASVGDRVTITCRASQSISRYLNWYLQKPGKAPKLLISGASSLQSGVPSRFSGTGSGTEFTLTISSLQPEDFATYYCQQTFSIPLFGQGTKVEIK
B12: 3139_P23 (antibody, V domains shown)
VH: QVQLQESGPRLVKPSESLSLTCTVSGGSISNSFWGWIRQPPGEGLEWIGYVYNSGNTKYNPSLKSRVTISRDTSKSQLYMKLRSVTAADTAVYYCARHDDASHGYSISWGHGTLVTVSS
VL: DIQMTQSPSSLSASVGDRVTITCRASQTISTYLNWYQQKSGKAPKLLIYAASGLQSGVPSRFSGSGSGTDFTLTISSLQPEDFATYFCQQSYNTPLTFGQGTKVEIK
B13: 3259_J21 (antibody, V domains shown)
VH: QVQLQESGPRVVRPSETLSLTCTVSGGSISSYNWIWIRQPPGKGLEWIGHIYDYGRTFYNSSLQSRPTISVDASKNQLSLRLTSVTASDTAVYYCARPLGILHYYAMDLWGQGTTVTVSS
VL: DIQMTQSPLSVSVSVGDRVTIACRASQSIDKFLNWYQQKPGKAPKLLIYGASNLHSGAPSRFSASGSGTDFTLTITNIQTEDFATYLCQQSFSVPAFGGGTKVEIK
B14: 3244_I10 (antibody, V domains shown)
VH: QVQLQESGPGLLKPSDTLALTCTVSGGSITSDYWSWIRQPPGRGLDWIGFFYNGGSTKYNPSLKSRVTISADTSKNQLSLKLTSVTAADTGVYYCARHDAKFSGSYYVASWGQGTRVTVSS
VL: DIQMTQSPSSLSASVGDRVTISCRASQSISTYLNWYQQQPGKAPKVLIFGATNLQSGVPSRFSGSGSGTDFTLTISSLQPEDFATYYCQQSYNTPLIFGQGTKLEIK
B15: 3253_P10 (antibody, V domains shown)
VH: QVQLQESGPGLLKPSDTLALTCTVSGGSITSDYWSWIRQPPGRGLDWIGFFYNGGSTKYNPSLKSRVTISADTSKNQLSLKLTSVTAADTGVYYCARHDAKFSGSYYVASWGQGTRVTVSS
VL: DIQMTQSPSSLSASVGDRVTISCRASQSISTYLNWYQQQPGKAPKVLISGATDLQSGVPSRFSGSGSGTDFTLTISSLQPEDFATYYCQQSYNTPLIFGQGTKLEIK
B16: 3243_J07 (antibody, V domains shown)
VH: QVQLQESGPGLLKPSDTLALTCTVSGGSITSDYWSWIRQPPGRGLDWIGFFYNGGSTKYNPSLKSRVTISADTSKNQLSLKLTSVTAADTGVYYCARHDVKFSGSYYVASWGQGTRVTVSS
VL: DIQMTQSPSSLSASVGDRVTISCRASQSISTYLNWYQQQPGKAPKVLISGATNLQSGVPSRFSGSGSGTDFTLTISSLQPEDFATYYCQQSYNTPLIFGQGTKLEIK
B17: 3248_P18 (antibody, V domains shown)
VH: QVQLQESGPGLVKPSETLSLTCTVSGGSISAYHWSWIRQPPGKGLEWIGHIFDSGSTYYNPSLKSRVTISLDASKNQLSLRLTSVTASDTAIYYCARPLGSRYYYGMDVWGQGTTVTVSS
VL: DIQMTQSPSSLSASVGDRVTITCRASQSISRYLNWYQQKPGKAPKLLIYGASTLQNGAPSRFSGSGSGTDFTLTISSLQPEDSATYLCQQSYSVPAFGGGTKVEVK
B18: 3241_G23 (antibody, V domains shown)
VH: QVQLQQSGPGLVKPSQTLSLTCTVSGGPVSGGGYSWNWIRQRPGQGLEWVGFMFHSGSPRYNPTLKSRITISVDTSKNLVSLKLSSVTAADTAVYFCARVGQMDKYYAMDVWGQGTTVTVSS
VL: DIQMTQSPSSLSSSVGDRVTITCRASQSIGAYVNWYQQKAGKAPQVLIFGASNLQSGVPSRFSGSGSGTDFTLTISSLQPEDFATYFCQQTYSTPITFGQGTRLEIK

One assay deals with M2 protein on influenza A/Puerto Rico/8/34 (H1N1) virus particles (Influenza A virus A/Puerto Rico/8/34 …, UniProt P06821 1-97). In words: surface plasmon resonance, Fab on influenza virus. Background: Surface plasmon resonance follows binding to a sensor surface in real time, without labels.
Take B1: binding was put at a Kd of 3.2 nM, the koff was determined as 0.0023 s⁻¹ and the association rate constant (kon) turned out to be 740000 M⁻¹ s⁻¹.
The matching figures for B2: 14 nM, 0.014 s⁻¹ and 1e+06 M⁻¹ s⁻¹.

For a further assay, the target named is M2 protein of A/Puerto Rico/8/34 (H1N1), on cells (Influenza A virus A/Puerto Rico/8/34 (H1N1)) (UniProt P06821). Briefly: flow cytometry on MDCK cells infected with A/Puerto Rico/8/34.
As to TCN-032 (antibody), the EC50 (read off the curve) was 0.1 µg/mL.
TCN-031 (antibody) displayed a concentration for a half-maximal effect (EC50 (read off the curve)) of 0.2 µg/mL.

The next assay concerns the target M2 protein of A/Hong Kong/483/1997, on cells (Influenza A virus A/Hong Kong/483/97 (H5N1)). In words: FACS, supernatant on CHO cells stably expressing M2 of A/Hong Kong/483/97. In general terms: In flow cytometry, cells or beads pass a laser one at a time.
Molecule B3 came in with an FACS M2-HK MFI of 919 MFI.
B4 returned an FACS M2-HK MFI of 963 MFI.
With B5, the FACS M2-HK MFI worked out at 449 MFI.
Regarding B6, the FACS M2-HK MFI is 112 MFI.
On the same count and under the same terms, the same measure for B7: 442 MFI; for B8: 218 MFI.
Same read-out and setting: the same measure for B9: 109 MFI.
B10 registered an FACS M2-HK MFI of 846 MFI.
Consider B11, for which the FACS M2-HK MFI turned out to be 596 MFI.
Molecule B12 had an FACS M2-HK MFI of 110 MFI.
On the same count and under the same terms, the same measure for B13: 1670 MFI.
Same read-out and setting: the same measure for B14: 434 MFI; for B15: 43 MFI; for B16: 131 MFI.
For the molecule B17, the FACS M2-HK MFI was 967 MFI.
On to B18, for which the FACS M2-HK MFI came out at 1700 MFI.
